Several values for one entry are separate records, joined by “and”; a condition that tells them apart may be missing. Identical values can stand only once.
How the values were obtained:
Galectin-9 (human) [1] = molecular target: Galectin-9 (human) (UniProt O00182); assay: flow cytometry, EPCAM+ tumor cells, S3 organoid fraction, Pancreas NET
Galectin-9 (human) [2] = molecular target: Galectin-9 (human) (UniProt O00182); assay: flow cytometry, CD3+ T cells, S2 single cell fraction, Pancreas NET
Galectin-9 (human) [3] = molecular target: Galectin-9 (human) (UniProt O00182); assay: flow cytometry, CD11b+ myeloid cells, S2 single cell fraction, PDA
Galectin-9 (human) [4] = molecular target: Galectin-9 (human) (UniProt O00182); assay: flow cytometry, CD11b+ myeloid cells, S2 single cell fraction, CRC
Galectin-9 (human) [5] = molecular target: Galectin-9 (human) (UniProt O00182); assay: flow cytometry, CD11b+ myeloid cells, S3 organoid fraction, CRC
Galectin-9 (human) [6] = molecular target: Galectin-9 (human) (UniProt O00182); assay: flow cytometry, CD11b+ myeloid cells, S3 organoid fraction, Pancreas NET
Galectin-9 (human) [7] = molecular target: Galectin-9 (human) (UniProt O00182); assay: flow cytometry, EPCAM+ tumor cells, S3 organoid fraction, CRC liver metastasis
Galectin-9 (human) [8] = molecular target: Galectin-9 (human) (UniProt O00182); assay: flow cytometry, CD3+ T cells, S2 single cell fraction, CRC liver metastasis
Galectin-9 (human) [9] = molecular target: Galectin-9 (human) (UniProt O00182); assay: flow cytometry, CD3+ T cells, S2 single cell fraction, CRC
Galectin-9 (human) [10] = molecular target: Galectin-9 (human) (UniProt O00182); assay: flow cytometry, EPCAM+ tumor cells, S2 single cell fraction, Pancreas NET
Galectin-9 (human) [11] = molecular target: Galectin-9 (human) (UniProt O00182); assay: flow cytometry, CD3+ T cells, S2 single cell fraction, PDA
Galectin-9 (human) [12] = molecular target: Galectin-9 (human) (UniProt O00182); assay: flow cytometry, EPCAM+ tumor cells, S3 organoid fraction, HCC
Galectin-9 (human) [13] = molecular target: Galectin-9 (human) (UniProt O00182); assay: flow cytometry, CD11b+ myeloid cells, S2 single cell fraction, CRC liver metastasis
Galectin-9 (human) [14] = molecular target: Galectin-9 (human) (UniProt O00182); assay: flow cytometry, EPCAM+ tumor cells, S3 organoid fraction, CRC
Galectin-9 (human) [15] = molecular target: Galectin-9 (human) (UniProt O00182); assay: flow cytometry, EPCAM+ tumor cells, S2 single cell fraction, CRC
Galectin-9 (human) [16] = molecular target: Galectin-9 (human) (UniProt O00182); assay: flow cytometry, EPCAM+ tumor cells, S3 organoid fraction, Liver NET
Galectin-9 (human) [17] = molecular target: Galectin-9 (human) (UniProt O00182); assay: flow cytometry, CD11b+ myeloid cells, S3 organoid fraction, CRC liver metastasis
Galectin-9 (human) [18] = molecular target: Galectin-9 (human) (UniProt O00182); assay: flow cytometry, EPCAM+ tumor cells, S2 single cell fraction, CRC liver metastasis
Galectin-9 (human) [19] = molecular target: Galectin-9 (human) (UniProt O00182); assay: flow cytometry, CD3+ T cells, S3 organoid fraction, HCC
Galectin-9 (human) [20] = molecular target: Galectin-9 (human) (UniProt O00182); assay: flow cytometry, CD11b+ myeloid cells, S3 organoid fraction, PDA
Galectin-9 (human) [21] = molecular target: Galectin-9 (human) (UniProt O00182); assay: flow cytometry, EPCAM+ tumor cells, S2 single cell fraction, Liver NET
Galectin-9 (human) [22] = molecular target: Galectin-9 (human) (UniProt O00182); assay: flow cytometry, EPCAM+ tumor cells, S2 single cell fraction, PDA
Galectin-9 (human) [23] = molecular target: Galectin-9 (human) (UniProt O00182); assay: flow cytometry, CD3+ T cells, S3 organoid fraction, Pancreas NET
Galectin-9 (human) [24] = molecular target: Galectin-9 (human) (UniProt O00182); assay: flow cytometry, CD3+ T cells, S3 organoid fraction, PDA
Galectin-9 (human) [25] = molecular target: Galectin-9 (human) (UniProt O00182); assay: flow cytometry, CD3+ T cells, S3 organoid fraction, CRC liver metastasis
Galectin-9 (human) [26] = molecular target: Galectin-9 (human) (UniProt O00182); assay: flow cytometry, EPCAM+ tumor cells, S3 organoid fraction, PDA
Galectin-9 (human) [27] = molecular target: Galectin-9 (human) (UniProt O00182); assay: flow cytometry, CD11b+ myeloid cells, S3 organoid fraction, HCC
Galectin-9 (human) [28] = molecular target: Galectin-9 (human) (UniProt O00182); assay: flow cytometry, CD11b+ myeloid cells, S2 single cell fraction, Pancreas NET
Galectin-9 (human) [29] = molecular target: Galectin-9 (human) (UniProt O00182); assay: flow cytometry, CD3+ T cells, S3 organoid fraction, CRC

Galectin-9 (human), sequence (O00182 whole entry): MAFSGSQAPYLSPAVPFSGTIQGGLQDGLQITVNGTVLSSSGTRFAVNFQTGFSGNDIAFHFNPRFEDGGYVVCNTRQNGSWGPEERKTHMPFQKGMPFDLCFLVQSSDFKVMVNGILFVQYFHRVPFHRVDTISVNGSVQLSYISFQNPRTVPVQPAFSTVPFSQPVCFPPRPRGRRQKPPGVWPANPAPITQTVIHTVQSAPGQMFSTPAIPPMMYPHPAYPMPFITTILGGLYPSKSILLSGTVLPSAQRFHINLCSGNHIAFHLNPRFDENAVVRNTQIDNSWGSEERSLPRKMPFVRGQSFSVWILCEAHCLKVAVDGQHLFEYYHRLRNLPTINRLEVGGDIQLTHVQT

For Fab isotype, the % Gal9 expression based on staining (Galectin-9 (human) [1]) was 4.19%, the % Gal9 expression based on staining (Galectin-9 (human) [2]) was 32.2% and the % Gal9 expression based on staining (Galectin-9 (human) [3]) was 1.19% and 0%. The % Gal9 expression based on staining (Galectin-9 (human) [4]) was 2.86% and 5.84%, the % Gal9 expression based on staining (Galectin-9 (human) [5]) was 0.38% and 11.8% and 2.4% and the % Gal9 expression based on staining (Galectin-9 (human) [6]) was 1.87%. For the same substance, the % Gal9 expression based on staining (Galectin-9 (human) [7]) was 0.06%, the % Gal9 expression based on staining (Galectin-9 (human) [8]) was 0.56% and the % Gal9 expression based on staining (Galectin-9 (human) [9]) was 2.5% and 1.59%. For the same substance, the % Gal9 expression based on staining (Galectin-9 (human) [10]) was 2.41%, the % Gal9 expression based on staining (Galectin-9 (human) [11]) was 0% and 0.52% and the % Gal9 expression based on staining (Galectin-9 (human) [12]) was 5.84%. For the same substance, the % Gal9 expression based on staining (Galectin-9 (human) [13]) was 1.2%, the % Gal9 expression based on staining (Galectin-9 (human) [14]) was 0.21% and 2.27% and 0.55% and the % Gal9 expression based on staining (Galectin-9 (human) [15]) was 0.64% and 3.97%. It also gave a % Gal9 expression based on staining (Galectin-9 (human) [16]) of 0.02%, a % Gal9 expression based on staining (Galectin-9 (human) [17]) of 1.5% and a % Gal9 expression based on staining (Galectin-9 (human) [18]) of 0.15%. For the same substance, the % Gal9 expression based on staining (Galectin-9 (human) [19]) was 1.14%, the % Gal9 expression based on staining (Galectin-9 (human) [20]) was 3.83% and 0.54% and the % Gal9 expression based on staining (Galectin-9 (human) [21]) was 0.45%. For the same substance, the % Gal9 expression based on staining (Galectin-9 (human) [22]) was 0.15% and 0.88%, the % Gal9 expression based on staining (Galectin-9 (human) [23]) was 4.96% and the % Gal9 expression based on staining (Galectin-9 (human) [24]) was 0% and 0.59%. The % Gal9 expression based on staining (Galectin-9 (human) [25]) was 0%, the % Gal9 expression based on staining (Galectin-9 (human) [26]) was 0.17% and 0.94% and the % Gal9 expression based on staining (Galectin-9 (human) [27]) was 1.72%. For the same substance, the % Gal9 expression based on staining (Galectin-9 (human) [28]) was 16.2% and the % Gal9 expression based on staining (Galectin-9 (human) [29]) was 0% and 15.3% and 0.87%.

Source: patent US20220178930A1
